Experimental data: IntAct's records for PubMed 21131967

B1: Transcription factor p65 (Mus musculus), Q04207 (parent)
chain: MDDLFPLIFPSEPAQASGPYVEIIEQPKQRGMRFRYKCEGRSAGSIPGERSTDTTKTHPTIKINGYTGPGTVRISLVTKDPPHRPHPHELVGKDCRDGYYEADLCPDRSIHSFQNLGIQCVKKRDLEQAISQRIQTNNNPFHVPIEEQRGDYDLNAVRLCFQVTVRDPAGRPLLLTPVLSHPIFDNRAPNTAELKICRVNRNSGSCLGGDEIFLLCDKVQKEDIEVYFTGPGWEARGSFSQADVHRQVAIVFRTPPYADPSLQAPVRVSMQLRRPSDRELSEPMEFQYLPDTDDRHRIEEKRKRTYETFKSIMKKSPFNGPTEPRPPTRRIAVPTRNSTSVPKPAPQPYTFPASLSTINFDEFSPMLLPSGQISNQALALAPSSAPVLAQTMVPSSAMVPLAQPPAPAPVLTPGPPQSLSAPVPKSTQAGEGTLSEALLHLQFDADEDLGALLGNSTDPGVFTDLASVDNSEFQQLLNQGVSMSHSTAEPMLMEYPEAITRLVTGSQRPPDPAPTPLGTSGLPNGLSGDEDFSSIADMDFSALLSQISS
partner: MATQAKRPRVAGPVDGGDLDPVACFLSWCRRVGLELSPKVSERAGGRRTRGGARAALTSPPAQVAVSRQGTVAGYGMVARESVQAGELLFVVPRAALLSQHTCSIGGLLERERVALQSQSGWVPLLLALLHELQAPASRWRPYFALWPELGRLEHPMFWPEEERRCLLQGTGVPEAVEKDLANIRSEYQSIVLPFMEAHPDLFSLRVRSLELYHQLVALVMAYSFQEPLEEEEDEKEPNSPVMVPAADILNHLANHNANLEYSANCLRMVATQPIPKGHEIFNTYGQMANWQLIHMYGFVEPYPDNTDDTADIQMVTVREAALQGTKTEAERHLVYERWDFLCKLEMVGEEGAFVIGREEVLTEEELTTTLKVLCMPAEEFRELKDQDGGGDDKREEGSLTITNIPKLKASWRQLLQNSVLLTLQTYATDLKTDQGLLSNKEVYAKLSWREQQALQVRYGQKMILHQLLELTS
B2: Transcription factor p65 (Mus musculus), Q04207 (parent)
chain: B1 chain
partner: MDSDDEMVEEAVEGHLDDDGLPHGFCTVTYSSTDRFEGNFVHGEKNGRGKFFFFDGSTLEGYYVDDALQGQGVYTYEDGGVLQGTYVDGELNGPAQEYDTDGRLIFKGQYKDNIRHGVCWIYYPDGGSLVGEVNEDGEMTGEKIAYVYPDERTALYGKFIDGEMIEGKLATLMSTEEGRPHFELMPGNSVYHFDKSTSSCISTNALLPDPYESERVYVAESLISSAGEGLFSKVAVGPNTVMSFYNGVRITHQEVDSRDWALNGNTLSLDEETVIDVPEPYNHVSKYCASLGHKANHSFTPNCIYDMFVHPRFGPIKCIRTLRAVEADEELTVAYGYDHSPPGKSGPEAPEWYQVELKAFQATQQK
B3: N-lysine methyltransferase SETD6 (Homo sapiens), Q8TBK2 (parent)
chain: B1 partner

Variants of: B1
Details: with setd6_human SETD6, Q8TBK2

| effect of a mutation on the interaction | Variant |
| --- | --- |
| disrupting interaction | K310R |

Variants of: B2
Details: with setd7_human SETD7, Q8WTS6

| effect of a mutation on the interaction | Variant |
| --- | --- |
| disrupting interaction | K310R |

Variants of: B3
Details: with tf65_mouse Rela, Q04207

| effect of a mutation on the interaction | Variant |
| --- | --- |
| disrupting interaction | Y285A |
